The experiment has as its target human FcμR ectodomain (human) (UniProt O60667). The experiment is described as follows: BLI; FcμR (20 μg/ml) captured on AMC (anti-mouse IgG-Fc capture) biosensors by the anti-FcμR antibody RR-16; full-length or proteolysed IgM 0.08-10 nM in solution; PBS, 0.005% Tween 20, 25 °C; apparent Kd from response against IgM concentration, 1:1 binding model.

Values joined by “and” are separate entries in the source; they are usually repeats but may differ in a detail not shown here. Equal values may be shown once.

Sequence of Full-length IgM (myeloma), pentamer with J chain (P01591 whole entry, looked up): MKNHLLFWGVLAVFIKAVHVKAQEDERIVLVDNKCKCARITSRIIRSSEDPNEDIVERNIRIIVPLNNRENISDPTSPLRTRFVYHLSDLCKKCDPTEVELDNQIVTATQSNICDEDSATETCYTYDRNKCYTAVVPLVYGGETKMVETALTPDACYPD
Sequence of human FcμR ectodomain (human) (O60667 17-251): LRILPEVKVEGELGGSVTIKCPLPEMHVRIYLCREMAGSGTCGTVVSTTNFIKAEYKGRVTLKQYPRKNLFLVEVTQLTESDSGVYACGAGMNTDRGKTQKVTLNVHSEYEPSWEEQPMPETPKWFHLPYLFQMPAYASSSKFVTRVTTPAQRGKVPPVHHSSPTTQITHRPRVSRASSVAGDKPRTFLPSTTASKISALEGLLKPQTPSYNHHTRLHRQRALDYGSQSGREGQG

Consider “Full-length IgM (myeloma), pentamer with J chain (from UniProt P01591 23-159) (antibody)”, for which the Kd was 0.3 nM and 0.4 nM.

These data come from article PMC7614769.
